Measured values taken from publication PMC5745793 (2017).
Where two headings read alike, the source gives them in different places. One block for each molecule: values may come before it.

Columns and labels:
CCR3 (Homo sapiens) [1] = biological target: CCR3 (Homo sapiens) (UniProt P51677); conditions: cited from earlier work
CCR3 (Homo sapiens) [2] = biological target: CCR3 (Homo sapiens) (UniProt P51677); conditions: cited from earlier work; remark: listed apart in the source
CCR3 = biological target: T1, CCR3 (Homo sapiens, UniProt P51677); assay: QCM
T1 chain: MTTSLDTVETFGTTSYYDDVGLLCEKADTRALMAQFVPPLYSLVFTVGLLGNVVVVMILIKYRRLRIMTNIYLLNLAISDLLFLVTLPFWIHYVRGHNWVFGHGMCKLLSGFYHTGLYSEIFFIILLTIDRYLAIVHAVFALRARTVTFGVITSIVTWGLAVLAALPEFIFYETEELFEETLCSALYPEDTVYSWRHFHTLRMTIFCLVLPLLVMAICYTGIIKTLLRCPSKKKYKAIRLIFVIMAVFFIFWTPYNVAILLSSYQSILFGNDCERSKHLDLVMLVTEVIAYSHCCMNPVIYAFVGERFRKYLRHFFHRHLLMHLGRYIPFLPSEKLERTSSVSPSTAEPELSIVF

Molecule: CCL24 (from UniProt O00175)
- Kd (CCR3 (Homo sapiens) [1]): 300 nM

Molecule: CCL11 (from UniProt P51671)
- Kd (CCR3 (Homo sapiens) [2]): 370 nM

- Kd (CCR3): 120 nM
B1: CCL8 (protein)
chain: QPDSVSIPITCCFNVINRKIPIQRLESYTRITNIQCPKEAVIFKTKRGKEVCADPKERWVRDSMKHLDQIFQNLKP
